Test results from the supplement of paper PMC9170038.

Test system: MS2 coat protein
Test: apparent KD of MS2 coat protein; designed switch direction (-1 OFF switch, 1 ON switch): 1; higher = weaker reporter binding
How it was run: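 Transcription of designed RNA switches on Illumina chips was done by stalled E. coli RNA polymerase. SNAP-549-labelled MS2 coat protein was then titrated in doubling steps from 0.7 or 1.5 nM to 3 µM, with steps of 0.8–1.5 h at the lowest and 10–20 min at the highest concentration. The per-design median over clusters of curve-fitted normalised fluorescence is reported as apparent KD.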

[1] = input ligand: microRNA oligo, concentration not stated
[2] = Eterna round: R95, input ligand: FMN 200 uM
[3] = Eterna round: R95, input ligand: microRNA oligo, concentration not stated
[4] = Eterna round: R95, input ligand: none

Sequence	apparent KD of MS2 coat protein (input ligand: FMN 200 uM)	apparent KD of MS2 coat protein [1]	apparent KD of MS2 coat protein (input ligand: none)	apparent KD of MS2 coat protein [2]	apparent KD of MS2 coat protein [3]	apparent KD of MS2 coat protein [4]
CUUUUUAGUGCAGGAUAUGAUCAACAUGAGGAUCACCCAUGUGGCGUUGUGAGUAGGGAGAGAGAUCAGAAGGGCGUCUCCGCG [SS-NG2-LRO12] (Eterna round: R96, puzzle: Same State NG 2)	46.4 nM	62.3 nM	42.2 nM	–	–	–
GAAGAACAUGAGGAUCACCCAUGUAAGCGGAAGCUAGGAUAUGCGGGAAAGAAGAGAGAAGCAGAAGGAGUAGGAA [JR_SS1_Sub029] (puzzle: Same State 1)	–	–	–	29.6 nM	34.4 nM	48.8 nM
GACAAGAAGUCAUAGGAUAUACAAGGAGUGACAUGAGGAUCACCCAUGUACCAUCACACUACCCAGUAGAAGGAUGGCAAUAAAA [Oranor] (puzzle: Same State 2)	–	–	–	50.3 nM	384 nM	542 nM
GACAAUCUAUCUGAGGAUAUCAUGAAAAAAACAUGAGGAUCACCCAUGUGCAGGAAAACUGCAUAUGAGAAGGCAGAUAGAUUGG [salish99_SS2_r3_011] (puzzle: Same State 2)	–	–	–	31.2 nM	485 nM	613 nM
GACAAUCUAUCUGAGGAUAUCAUGAAAAAAACAUGAGGAUCACCCAUGUGCAGGAAAACUGCAUAUGAGAAGGCAGAUAGAUUGU [salish99_SS2_r3_010] (puzzle: Same State 2)	–	–	–	45.3 nM	689 nM	627 nM
GACAAUUGACAUGAGGAUCACCCAUGUAUUACUUCGUGUUUUUGCUCGUCUUAUGUUAGGUUCGAAAGGAGCUUAAC [Polished] (puzzle: Sensor for hsa-mir-208a version 2)	–	–	–	68.6 nM	16.2 nM	86.7 nM
GACAGACAUGAGGAUCACCCAUGUACAAACGUACAAGGAUAUGUGUGGAAACCGUACUAUACAGAAGGUGUCUGUC [SS1 - 90] (Eterna round: R96, puzzle: Same State 1)	–	71.3 nM	–	–	–	–
GACAUGAGGAUCACCCAUGUGAGCGCUUCAAUUUGCGCGACACAGGAUAUAGCAUGCUAUGCAUGCUAGAAGGGUGGUAAAGAC [Risoeserxe] (Eterna round: R96, puzzle: Same State NG 3)	595 nM	49.9 nM	140 nM	–	–	–
GAGAAGAGGGACAAGGAUAUGUCAGGAGAGACAUGAGGAUCACCCAUGUAGAGGUUGGAGGAGAGACAGAAGGUGUAGGGAGCGA [JR_SS2_Sub012] (puzzle: Same State 2)	–	–	–	50.1 nM	57.2 nM	98 nM
GAGAGACGAUUAGGAUAUACAGUGAUAAUGAUAGUAGAAGGAAUUGACAUGAGGAUCACCCAUGUAGGACUAAUCCAGAGAGAG [Parity 27 - Jieux - Same State NG 1] (Eterna round: R96, puzzle: Same State NG 1)	46 nM	36.4 nM	52.2 nM	–	–	–
GAGAGAGGGUGAGGAUAUUUAGUGAUAAUGAUAAGAGAAGGCACAGACAUGAGGAUCACCCAUGUGGGAAUAAUCCAGAGAGAG [Parity 8 - Jieux - Same State NG 1] (Eterna round: R96, puzzle: Same State NG 1)	–	167 nM	–	–	–	–
GAGAGAGGGUGAGGAUAUUUGGUGAUAAUGAUGGGAGAAGGCACAGACAUGAGGAUCACCCAUGUGGGAAUAAUCCAGAGAGAG [Parity 11 - Jieux - Same State NG 1] (Eterna round: R96, puzzle: Same State NG 1)	582 nM	182 nM	410 nM	–	–	–
GAGAGAUGGCGAGGAUAUGCGGUGAUAAUGAUGGCAGAAGGCGCUGACAUGAGGAUCACCCAUGUGGGAAUAAUCCAGAGAGAG [Parity 17 - Jieux - Same State NG 1] (Eterna round: R96, puzzle: Same State NG 1)	279 nM	564 nM	683 nM	–	–	–
GAGCCAGUCCGAGGAUAUUCAUACAUGAGGAUCACCCAUGUAGGCUCAGAAAAGAAAGAGCCUUGGGAGAAGGCGGACUGGCUC [Xeonanisa<<6] (Eterna round: R96, puzzle: Same State NG 2)	6.96 nM	6.06 nM	10.9 nM	–	–	–
GAGGGACAGACCAACAUGAGGAUCACCCAUGUCCUCGCAGGUCAGGAUAUCCGGAGGUAGACGAAGGAGAAGGGACGGUGAACC [AK SSNG3-V2-38] (Eterna round: R96, puzzle: Same State NG 3)	893 nM	251 nM	631 nM	–	–	–
GAGGGAUGAGCGUAGGAUAUAGGAGAAGUGACAUGAGGAUCACCCAUGUGGUAUGAGGGAUGAUUCUAGAAGGACGCGGUAGGAG [JR_SS2_Sub062] (puzzle: Same State 2)	–	–	–	154 nM	494 nM	116 nM
GAGUAGUUGAAAGGAUAUCCAUUGUUAUAGAAUGGAGAAGGUUCUAACAUGAGGAUCACCCAUGUAGGACUAUUCCUGUGUAUC [Parity 81 - Jieux - Same State NG 1] (Eterna round: R96, puzzle: Same State NG 1)	9.98 nM	8.16 nM	11.9 nM	–	–	–
GAGUAGUUGAUAGGAUAUUGAUUGUUAUAGGAUCAAGAAGGAUCUAACAUGAGGAUCACCCAUGUAGGACUAUUCCUGUGUAUC [Parity 84 - Jieux - Same State NG 1] (Eterna round: R96, puzzle: Same State NG 1)	–	16.9 nM	–	–	–	–
GAGUAUGAACUACAGGAUAUAUAGCAGAUGACAUGAGGAUCACCCAUGUAAGAGAAAGGAGGGAAAUAGAAGGGUAUGGGAGGUG [JR_SS2_Sub036] (puzzle: Same State 2)	–	–	–	37.6 nM	33.9 nM	31.4 nM
GAGUGACGAUUAGGAUAUAUAGUGAUAAUGAUAAUAGAAGGAAUUGACAUGAGGAUCACCCAUGUAGGACUAAUCCAGAGAGAG [Parity 28 - Jieux - Same State NG 1] (Eterna round: R96, puzzle: Same State NG 1)	–	44.9 nM	–	–	–	–
GAGUGAUGGGUUAGUAACUGCUGGGAAGGACAUGAGGAUCACCCAUGUGAGUAACGAGCUUGUGCUCGUCUUAUAAG [JR_SHM208A_Sub022] (puzzle: Sensor for hsa-mir-208a)	–	–	–	388 nM	192 nM	425 nM
GAGUGGAGGAAAGGAUAUACAAUGAUAAUCACAGUAGAAGGUUCUAACAUGAGGAUCACCCAUGUAGGACUAUACCUGAGAGAA [Parity 47 - Jieux - Same State NG 1] (Eterna round: R96, puzzle: Same State NG 1)	9.26 nM	10.8 nM	15.5 nM	–	–	–
GAGUGGAGGAGAGGAUAUACAAUGAUAAUCACUGUAGAAGGUUCUAACAUGAGGAUCACCCAUGUAGGACUAUUCCUGAGAGUU [Parity 51 - Jieux - Same State NG 1] (Eterna round: R96, puzzle: Same State NG 1)	–	9.46 nM	–	–	–	–
GAGUGGUGAAAAGGAUAUGCAUUGUUAUUCACUGUAGAAGGUUUUAACAUGAGGAUCACCCAUGUAGGACUAUUCCUGUGUUUU [Parity 60 - Jieux - Same State NG 1] (Eterna round: R96, puzzle: Same State NG 1)	17.6 nM	14.8 nM	23.2 nM	–	–	–
GAGUUUGAACUACAGGAUAUAUAGCAGAUGACAUGAGGAUCACCCAUGUAAGAGAAAGGAGGGAAAUAGAAGGGUAUGGGAGGUG [JR_SS2_Sub035] (puzzle: Same State 2)	–	–	–	33.7 nM	20.4 nM	24.3 nM
GAUAAACAUGAGGAUCACCCAUGUAAUAAUAUGGGAGGAUAUCAGAAUGUAUGUAUGUAAUGAGAAGGCCUAAUAU [Mat - Same State 1 - Mod of Eli - D71] (puzzle: Same State 1)	–	–	–	61.8 nM	545 nM	491 nM
GAUAUACAUGAGGAUCACCCAUGUCAUAUGACAUGAGGAUAUGUACAGACUUCGGUCUGUACAGAAGGCAUGUGUC [SS1 - 1011 Omei Mod 1] (puzzle: Same State 1)	–	–	–	60.5 nM	338 nM	530 nM
GAUCGUUUGAUAGGAUAUCGCUAUACAUGAGGAUCACCCAUGUUUACCACGCUGGUUUUUCAUACCGAGAAGGAUUCUGAUGAG [salish99_SSNG02_r04_008] (Eterna round: R96, puzzle: Same State NG 2)	64.8 nM	49.7 nM	56.1 nM	–	–	–
